Data from patent US20230201308A1, “TREATMENT OF CORONAVIRUS INFECTION WITH […]” (Eiger Biopharmaceuticals, Inc., priority 2020, published 2023).
Like-named read-outs stand apart in the source and are kept apart here.

Assays:
[1] = system: SARS-CoV-2 (2019-nCoV/USA-WA1/2020); assay type: cell-based; settings: HAE pretreated basolaterally 24 hr
[2] = system: SARS-CoV-2 MA; design: species or system BALB/c mice; settings: mouse, in vivo, sc
[3] = system: SARS-CoV-2; assay: First trial: single 180 mcg dose vs placebo in 120 participants with COVID-19; assay type: in vivo, human
Description: Using the methods and criteria described above in Examples 1-3, a first trial was performed. In the first trial, 120 participants were enrolled; 70 (58.3%) were male, 75 (62.5%) identified as Latinx, and the median duration of symptoms prior to randomization was 5 days. Sixty participants were randomly assigned to receive 180 mcg pegylated interferon lambda-1a, and 60 participants were assigned to receive a placebo. […] Subjects viral samples were taken by oral pharyngeal swabs. The median time to cessation of viral shedding was 7 days in both arms (hazard ratio [HR] for duration of shedding 0.81 comparing Lambda vs. placebo; 95% confidence interval [CI] 0.56 to 1.19; p=0.29). No difference in time to resolution of symptoms was observed comparing interferon lambda vs. placebo (HR 0.94; 95% CI 0.64 to 1.39; p=0.76). Two serious adverse events were reported in each arm. Liver transaminase elevations were more common in the interferon lambda vs. placebo arm (15/60 vs 5/60; p=0.027).

[4] = Third trial (TOGETHER): treatment emergent adverse events and drug adherence; assay type: in vivo, human
Description: An adverse event (AE) is any adverse change from the participant's baseline (pre-treatment) condition, including intercurrent illness which occurs during the course of the trial, after the consent form has been signed, whether the event is considered related to treatment or not.
A serious adverse event (SAE) is any adverse event that at any dose: • results in death (grade 5 event) • is life-threatening (grade 4 event) • requires inpatient hospitalization or prolongation of existing hospitalization • results in persistent or significant disability or incapacity • is a congenital anomaly/birth defect
Study personnel collected outcome data via in-person, and via telephone or WhatsApp using video-teleconferencing on Days 1, 2, 3, 4, 5, 7, 10, 14, and 28. Adverse events were recorded at the time they occurred. All serious and non-serious adverse events were reported to study personnel as per local regulatory requirements. Reportable adverse events included serious adverse events, adverse events resulting in study medication discontinuation, and adverse events assessed as possibly related to study medication.

[5] = ITT preliminary, n=916 vs placebo 1020
[6] = Treated within 3 days of symptom onset, n=539 vs placebo 586
[7] = Treated within 5 days of symptom onset, n=800 vs placebo 879
[8] = Unvaccinated population, n=143 vs placebo 176

B1: pegylated interferon lambda-1a (protein)
chain: MKPTTTGKGCHIGRFKSLSPQELASFKKARDALEESLKLKNWSCSSPVFPGNWDLRLLQVRERPVALEAELALTLKVLEAAAGPALEDVLDQPLHTLHHILSQLQACIQPQPTAGPRPRGRLHHWLHRLQEAPKKESAGCLEASVTFNLFRLLTRDLKYVADGNLSLRTSTHPEST
modifications: PEG
notes: 180 mcg subcutaneous injection
SARS-CoV-2 infectious virus production (titer of apical washes, plaque assay) ([1]; […]): reducing viral load in infected cells | SARS-CoV-2 infectious virus production (titer of apical washes, plaque assay) ([1]; […];, listed as peg-IFN-λ1): potent dose dependent reduction | SARS-CoV-2 MA replication in the lung (lung viral titer) [2]: significantly diminished | viral titer in the nasal turbinates [2]: did not alter | shedding cessation relative to placebo ([3]; seronegative at baseline): delayed shedding cessation relative to placebo | shedding cessation relative to placebo ([3]; seropositive at baseline): appeared to hasten shedding cessation | effect on duration of viral shedding and symptoms compared to placebo ([3]; single 180 mcg s.c.): neither shortened the duration of SARS-CoV-2 viral shedding nor improved symptoms | hazard ratio for duration of shedding vs. placebo ([3]; single 180 mcg s.c.): 0.81 | hazard ratio, time to resolution of symptoms vs. placebo ([3]; single 180 mcg s.c.): 0.94 | liver transaminase elevations (participants of arm) ([3]; single 180 mcg s.c.): 15/60 | serious adverse events reported in the arm ([3]; single 180 mcg s.c.): Two | tolerability ([3]; single 180 mcg s.c.): well tolerated | median time to cessation of viral shedding ([3]; single 180 mcg s.c., n=60): 7 days | TEAE, Grade 1, % of patients [4, 5]: (1.7%) | TEAE, Grade 1, RR (95% CrI) vs placebo [4, 5]: 0.75 (0.40, 1.38) | TEAE, Grade 2, % of patients [4, 5]: (9%) | TEAE, Grade 2, RR (95% CrI) vs placebo [4, 5]: 1.00 (0.75, 1.33) | TEAE, Grade 3, % of patients [4, 5]: (2.2%) | TEAE, Grade 3, RR (95% CrI) vs placebo [4, 5]: 0.70 (0.40, 1.20) | TEAE, Grade 4, % of patients [4, 5]: (0.8%) | TEAE, Grade 4, RR (95% CrI) vs placebo [4, 5]: 1.11 (0.41, 3.05) | TEAE, Grade 5, % of patients [4, 5]: (0.3%) | TEAE, Grade 5, RR (95% CrI) vs placebo [4, 5]: 0.88 (0.21, 3.40) | Number experiencing TEAEs: % ([4]; N = 931): (14.7%) | Number experiencing TEAEs: n ([4]; N = 931): 137 | Number experiencing possibly treatment-related TEAS: % ([4]; N = 931): (0.4%) | Number experiencing possibly treatment-related TEAS: n ([4]; N = 931): 4 | Number experiencing serious TEAEs: % ([4]; N = 931): (3.4%) | Number experiencing serious TEAEs: n ([4]; N = 931): 32 | TEAE, Grade 1: % ([4]; N = 931): (2.9%) | TEAE, Grade 1: n ([4]; N = 931): 27 | TEAE, Grade 2: % ([4]; N = 931): (9.2%) | TEAE, Grade 2: n ([4]; N = 931): 86 | TEAE, Grade 3: % ([4]; N = 931): (2.3%) | TEAE, Grade 3: n ([4]; N = 931): 21 | TEAE, Grade 4: % ([4]; N = 931): (0.9%) | TEAE, Grade 4: n ([4]; N = 931): 8 | TEAE, Grade 5: % ([4]; N = 931): (0.4%) | TEAE, Grade 5: n ([4]; N = 931): 4 | Number experiencing TEAEs: Probability of Superiority ([4]; N = 931 vs placebo N = 1018): 88.5 | Number experiencing TEAEs: RR (95% CrI), estimated treatment effect ([4]; N = 931 vs placebo N = 1018): 0.88 (0.71, 1.08) | Number experiencing possibly treatment-related TEAS: Probability of Superiority ([4]; N = 931 vs placebo N = 1018): 82.8 | Number experiencing possibly treatment-related TEAS: RR (95% CrI), estimated treatment effect ([4]; N = 931 vs placebo N = 1018): 0.59 (0.18, 1.74) | Number experiencing serious TEAEs: Probability of Superiority ([4]; N = 931 vs placebo N = 1018): 93.6 | Number experiencing serious TEAEs: RR (95% CrI), estimated treatment effect ([4]; N = 931 vs placebo N = 1018): 0.72 (0.46, 1.10) | TEAE, Grade 1: Probability of Superiority ([4]; N = 931 vs placebo N = 1018): 84.5 | TEAE, Grade 1: RR (95% CrI), estimated treatment effect ([4]; N = 931 vs placebo N = 1018): 0.78 (0.48, 1.26) | TEAE, Grade 2: Probability of Superiority ([4]; N = 931 vs placebo N = 1018): 64.0 | TEAE, Grade 2: RR (95% CrI), estimated treatment effect ([4]; N = 931 vs placebo N = 1018): 0.95 (0.72, 1.25) | TEAE, Grade 3: Probability of Superiority ([4]; N = 931 vs placebo N = 1018): 93.9 | TEAE, Grade 3: RR (95% CrI), estimated treatment effect ([4]; N = 931 vs placebo N = 1018): 0.66 (0.39, 1.11) | TEAE, Grade 4: Probability of Superiority ([4]; N = 931 vs placebo N = 1018): 42.6 | TEAE, Grade 4: RR (95% CrI), estimated treatment effect ([4]; N = 931 vs placebo N = 1018): 1.09 (0.42, 2.86) | TEAE, Grade 5: Probability of Superiority ([4]; N = 931 vs placebo N = 1018): 67.5 | TEAE, Grade 5: RR (95% CrI), estimated treatment effect ([4]; N = 931 vs placebo N = 1018): 0.76 (0.22, 2.46) | TEAE, Grade 1, % of patients [4, 6]: (0.9%) | TEAE, Grade 1, RR (95% CrI) vs placebo [4, 6]: 0.53 (0.18, 1.38) | TEAE, Grade 2, % of patients [4, 6]: (9.8%) | TEAE, Grade 2, RR (95% CrI) vs placebo [4, 6]: 1.13 (0.78, 1.63) | TEAE, Grade 3, % of patients [4, 6]: (1.3%) | TEAE, Grade 3, RR (95% CrI) vs placebo [4, 6]: 0.47 (0.19, 1.05) | TEAE, Grade 4, % of patients [4, 6]: (0.7%) | TEAE, Grade 4, RR (95% CrI) vs placebo [4, 6]: 3.01 (0.61, 23.67) | TEAE, Grade 5, % of patients [4, 6]: (0%) | TEAE, Grade 5, RR (95% CrI) vs placebo [4, 6]: 0.21 (0.01, 1.64) | TEAE, Grade 1, % of patients [4, 7]: (1.8%) | TEAE, Grade 1, RR (95% CrI) vs placebo [4, 7]: 0.78 (0.40, 1.51) | TEAE, Grade 2, % of patients [4, 7]: (8.9%) | TEAE, Grade 2, RR (95% CrI) vs placebo [4, 7]: 0.95 (0.70, 1.29) | TEAE, Grade 3, % of patients [4, 7]: (1.9%) | TEAE, Grade 3, RR (95% CrI) vs placebo [4, 7]: 0.56 (0.30, 1.01) | TEAE, Grade 4, % of patients [4, 7]: (0.8%) | TEAE, Grade 4, RR (95% CrI) vs placebo [4, 7]: 1.99 (0.58, 7.88) | TEAE, Grade 5, % of patients [4, 7]: (0.4%) | TEAE, Grade 5, RR (95% CrI) vs placebo [4, 7]: 0.86 (0.20, 3.40) | TEAE, Grade 1, % of patients [4, 8]: 5.6% | TEAE, Grade 1, RR (95% CrI) vs placebo [4, 8]: 1.23 (0.49, 3.08) | TEAE, Grade 2, % of patients [4, 8]: 11.9% | TEAE, Grade 2, RR (95% CrI) vs placebo [4, 8]: 1.16 (0.63, 2.16) | TEAE, Grade 3, % of patients [4, 8]: 3.5% | TEAE, Grade 3, RR (95% CrI) vs placebo [4, 8]: 0.60 (0.21, 1.53) | TEAE, Grade 4, % of patients [4, 8]: 1.4% | TEAE, Grade 4, RR (95% CrI) vs placebo [4, 8]: 0.58 (0.12, 2.22) | TEAE, Grade 5, % of patients [4, 8]: 0 (0%) | TEAE, Grade 5, RR (95% CrI) vs placebo [4, 8]: 1.21 (0.03, 47.34) | treatment emergent adverse events compared to placebo ([4]; final analysis, listed as peginterferon lambda): no important differences | Premature discontinuation, Request by participant to terminate study treatment, % ([4]; n=916): (0.0%) | Premature discontinuation, reason Hospitalization, % ([4]; n=916): (0.0%) | Premature discontinuation, reason Non-compliance with Study Therapy, % ([4]; n=916): (0.0%) | Premature discontinuation, reason Other, % ([4]; n=916): (0.0%) | Prematurely discontinued study drug, % ([4]; n=916, within 28 days of randomization): (0.0%) | incidence of any adverse event compared with placebo ([4]; preliminary ITT): indistinguishable
